{"source": "paper PMC5653825", "about": "“Arrhythmogenic cardiomyopathy related DSG2 mutations affect desmosomal cadherin binding kinetics” (Scientific Reports, 2017)", "key": {"[1]": {"biological_target": "Dsg2 (Homo sapiens) (UniProt Q14126)", "assay": "sedimentation equilibrium AUC", "settings": "cited from earlier work"}, "[2]": {"biological_target": "the molecule itself", "assay": "AFM single molecule force spectroscopy; Dsg2 EC1-4 covalently immobilised on both the AFM tip (long PEG linker) and the gold substrate; calcium buffer (2 mM CaCl2, 10 mM HEPES, 150 mM NaCl, pH 7.4); pulling velocities 200 to 5,000 nm s^-1; k- and x from the Evans and Ritchie model, Kd and k+ from the free energy by Jarzynski's equality; monomer to homodimer"}}, "data": [{"molecule": "Dsg2 (from UniProt Q14126)", "values": [{"measurement": "Kd", "setting": "[1]", "result": 433, "unit": "µM"}]}, {"molecule": "Desmoglein-2 (Dsg2) p.V343I (p.V392I), recombinant extracellular cadherin domains 1-4 (EC1-4) (domain or fragment, thiol of the unique cysteine C447 (C496) covalently coupled to the maleimide of a cross-linker (maleimide-PEG-succinimidyl valerate 3,400 on the cantilever; NHS 3-maleimidopropionate on the gold substrate)) AWITAPVALREGEDLSKKNPIAKIHSDLAEERGLKITYKYTGKGITEPPFGIFVFNKDTGELNVTSILDREETPFFLLTGYALDARGNNVEKPLELRIKVLDINDNEPVFTQDVFVGSVEELSAAHTLVMKINATDADEPNTLNSKISYRIVSLEPAYPPVFYLNKDTGEIYTTSVTLDREEHSSYTLTVEARDGNGEVTDKPVKQAQVQIRILDVNDNIPVVENKVLEGMVEENQVNVEVTRIKVFDADEIGSDNWLANFTFASGNEGGYFHIETDAQTNEGIVTLIKEVDYEEMKNLDFSVIVANKAAFHKSIRSKYKPTPIPIKVKVKNVKEGIHFKSSIISIYVSESMDRSSKGQIIGNFQAFDEDTGLPAHARYVKLEDRDNWISVDSVTSEIKLAKLPDFESRYVQNGTYTVKIVAISEDYPRKTITGTVLINVEDINDNCPTLIEPV", "values": [{"measurement": "Kd", "setting": "[2]", "result": 1010, "unit": "µM"}, {"measurement": "bond lifetime tau", "setting": "[2]", "result": 1.73, "unit": "s"}, {"measurement": "koff", "setting": "[2]", "result": 0.58, "unit": "s⁻¹"}, {"measurement": "kon", "setting": "[2]", "result": 573, "unit": "M⁻¹ s⁻¹"}]}, {"molecule": "Desmoglein-2 (Dsg2) wildtype, recombinant extracellular cadherin domains 1-4 (EC1-4) (domain or fragment, thiol of the unique cysteine C447 (C496) covalently coupled to the maleimide of a cross-linker (maleimide-PEG-succinimidyl valerate 3,400 on the cantilever; NHS 3-maleimidopropionate on the gold substrate)) AWITAPVALREGEDLSKKNPIAKIHSDLAEERGLKITYKYTGKGITEPPFGIFVFNKDTGELNVTSILDREETPFFLLTGYALDARGNNVEKPLELRIKVLDINDNEPVFTQDVFVGSVEELSAAHTLVMKINATDADEPNTLNSKISYRIVSLEPAYPPVFYLNKDTGEIYTTSVTLDREEHSSYTLTVEARDGNGEVTDKPVKQAQVQIRILDVNDNIPVVENKVLEGMVEENQVNVEVTRIKVFDADEIGSDNWLANFTFASGNEGGYFHIETDAQTNEGIVTLIKEVDYEEMKNLDFSVIVANKAAFHKSIRSKYKPTPIPIKVKVKNVKEGIHFKSSVISIYVSESMDRSSKGQIIGNFQAFDEDTGLPAHARYVKLEDRDNWISVDSVTSEIKLAKLPDFESRYVQNGTYTVKIVAISEDYPRKTITGTVLINVEDINDNCPTLIEPV", "values": [{"measurement": "Kd", "setting": "[2]", "result": 412, "unit": "µM"}, {"measurement": "bond lifetime tau", "setting": "[2]", "result": 0.33, "unit": "s"}, {"measurement": "koff", "setting": "[2]", "result": 2.99, "unit": "s⁻¹"}, {"measurement": "kon", "setting": "[2]", "result": 7270, "unit": "M⁻¹ s⁻¹"}]}, {"molecule": "Desmoglein-2 (Dsg2) p.D105E (p.D154E), recombinant extracellular cadherin domains 1-4 (EC1-4) (domain or fragment, thiol of the unique cysteine C447 (C496) covalently coupled to the maleimide of a cross-linker (maleimide-PEG-succinimidyl valerate 3,400 on the cantilever; NHS 3-maleimidopropionate on the gold substrate)) AWITAPVALREGEDLSKKNPIAKIHSDLAEERGLKITYKYTGKGITEPPFGIFVFNKDTGELNVTSILDREETPFFLLTGYALDARGNNVEKPLELRIKVLDINENEPVFTQDVFVGSVEELSAAHTLVMKINATDADEPNTLNSKISYRIVSLEPAYPPVFYLNKDTGEIYTTSVTLDREEHSSYTLTVEARDGNGEVTDKPVKQAQVQIRILDVNDNIPVVENKVLEGMVEENQVNVEVTRIKVFDADEIGSDNWLANFTFASGNEGGYFHIETDAQTNEGIVTLIKEVDYEEMKNLDFSVIVANKAAFHKSIRSKYKPTPIPIKVKVKNVKEGIHFKSSVISIYVSESMDRSSKGQIIGNFQAFDEDTGLPAHARYVKLEDRDNWISVDSVTSEIKLAKLPDFESRYVQNGTYTVKIVAISEDYPRKTITGTVLINVEDINDNCPTLIEPV", "values": [{"measurement": "Kd", "setting": "[2]", "result": 817, "unit": "µM"}, {"measurement": "bond lifetime tau", "setting": "[2]", "result": 3.39, "unit": "s"}, {"measurement": "koff", "setting": "[2]", "result": 0.3, "unit": "s⁻¹"}, {"measurement": "kon", "setting": "[2]", "result": 361, "unit": "M⁻¹ s⁻¹"}]}]}
